Reference: publication PMC6379670, “An ultra-high affinity ligand of HIV-1 TAR reveals the RNA structure recognized by P-TEFb” (Nucleic Acids Research, 2018)
Non-standard residues stand in square brackets, D forms with d. Residues, ends and D or L forms follow the SMILES beside them. *: point of attachment. 5FAM = O=C1OC2(c3ccc(O)cc3Oc3cc(O)ccc32)c2ccc(C(=O)*)cc21

What was measured:
[1] = system: Jurkat clone E4 (latent HIV provirus with LTR-driven GFP); assay: Reactivation from latency; type: cell-based, HIV-1; details: E4 Jurkat cells, peptides 0.39-100 μM, TNFα 1 ng/ml, GFP by flow cytometry 24 h later, triplicate
Experimental: A 5 × 10^4 cells/well of Jurkat clone E4 (in RPMI ([38])) were added to a 96-well plate at the same time as a dilution series of JB181, cyclic L22 and linear L22 (0.39, 1.56, 6.25, 25, 50 and 100 μM) in triplicate. Four hours following peptide addition, tumor necrosis factor α (TNFα) (1 ng/ml, Peprotech, Rocky Hill, NJ) was added to stimulate HIV-1 transcription. Twenty-four hours later, the percentage of cells expressing GFP was determined by flow cytometry as described above.
Figure 3. (A) M7-luc cells were infected with the replication competent HIV-1 clone NLgNef at very low titer. Three days post-infection, GFP expression was measured by flow cytometry. […] (B) JB181 inhibits HIV-1 reactivation from latency. Tat-dependent expression of GFP is repressed in E4 Jurkat cells, which serve as a model of HIV latency. These cells were pre-incubated for 2 h with L22 (cyclic, green), L22 (linear, blue) or JB181 (cyclic, red) at concentrations 0.5–100 μM, then stimulated for reactivation by TNFα at 1ng/ml. Twenty-four hours later, reactivation as monitored by GFP expression was measured by flow cytometry. […] (C) Biochemical RT inhibition assays were conducted as described previously ([31]) for peptides JB59, JB60, JB181 and L50 along with AZT. (D) Competition EMSA comparing affinity of the P-TEFb/Tat1:57/AFF4 complex for wild-type HIV-TAR with or without JB181 pre-bound to TAR. […]

[2] = system: HIV-1 clone NLgNef in M7-luc cells; assay: Spreading infection (inhibition of viral spread); type: cell-based; details: M7-luc cells infected with NLgNef
Experimental: A 5 × 10^6 5.25.EGFP.Luc.M7 cells (M7-luc, gift of N. Landau(36)) grown in Roswell Park Memorial Institute medium (RPMI) containing 25 mM 4-(2-hydroxyethyl)-1-piperazineethanesulfonic acid (HEPES) (GE Life Sciences, Pittsburgh, PA), 10% Fetal Bovine Serum (FBS) (Sigma, St. Louis, MO) and 100 μg/ml normocin (Invivogen, San Diego, CA) were infected with the HIV-1 strain NL43-GFP-IRES-Nef (NLgNef) that expresses Green Fluorescent Protein (GFP) and Nef on a bicistronic Nef messenger RNA (a gift of David Levy ([37])) at a low multiplicity of infection (<0.01 infectious units/cell). […] Forty-eight hours post peptide addition, the percentage of cells expressing GFP was determined by flow cytometry via BD Fortessa SORP (BD, Franklin Lakes, NJ). Flow cytometry data were analyzed using WinList 3D (Verity Software House, Topsham, ME). […]
To evaluate anti-viral potency, we tested compound JB181 for inhibition of viral spread (Figure 3A) by comparison with L22 and a linear peptide control (same sequence as L22 but not cyclized). […] Peptides were added 24 h post-infection and spread of infection determined after 72 h. […]
Figure 3. […] Three days post-infection, GFP expression was measured by flow cytometry. […] Twenty-four hours later, reactivation as monitored by GFP expression was measured by flow cytometry. […]

2D10 Jurkat cells = type: cell-based; details: 1 mg/ml peptide in the extracellular medium, percent of cells containing peptide by flow cytometry
Experimental: (§1) Frozen, de-identified human PBMCs (Allcells, Alameda, CA) were thawed and stimulated with 6 IU IL-2 (R&D Systems, Minneapolis, MN) and 10 μg/ml concanavalin A (ConA, MilliporeSigma, Billerica, MA) in RPMI. Six days post-thaw, CD4+ T cells were positively isolated using an EasySep Human CD4 positive selection kit in a RoboSep robot (#18052RF, Stemcell Technologies, Cambridge, MA). 2D10 Jurkat cells ([38]) were also grown in RPMI. L22 selectively labeled with 5/6-carboxyfluorescein was added at indicated concentrations at indicated time points prior to flow cytometry analysis as described above.
(§2) Fig. S4. Uptake of fluorescein-labeled L22. a). The turn residue, Lys6, of L22 was first selectively labeled with 5/6-carboxyfluorescein using NHS coupling chemistry and incubated with either CD4+ T cells (top) […]
(§3) containing peptide was analyzed by flow cytometry. b). 2D10 Jurkat cells were first stimulated with TNFα for 4hrs then incubated with L22-AF647 (red) for 30min prior to FISH staining for HIV TAR RNA (yellow), nuclear staining with DAPI (blue) and GFP expression dependent on transcription of HIV (green).
(§4) Panel I overlay all four stains, Panel II is L22-AF647 only; Panel III is L22-AF647 and TAR FISH, Panel IV L22-AF647 and GFP expression.
(§5) (1 picture or pasted object on this page, not shown here)

CD4+ T cells = type: cell-based; details: human CD4+ T-cells; 1 mg/ml peptide in the extracellular medium; percent of cells containing peptide by flow cytometry
Experimental: as §1, §2, §3, §4, §5

JB185 (synthetic) = assay: EMSA
JB190 (synthetic) = assay: EMSA
[3] = target: P-TEFb/Tat1:57/AFF4;JB181 (HIV-1 (Tat); human? (P-TEFb, AFF4);synthetic) (UniProt O60563+P50750+P04608+Q9UHB7); assay: EMSA
L22 (synthetic) = assay: EMSA
JB59 (synthetic) = assay: EMSA
JB181 (synthetic) [4] = assay: EMSA
JB186 (synthetic) = assay: EMSA
JB58 (synthetic) = assay: EMSA
JB184 (synthetic) = assay: EMSA
JB181 (synthetic) [5] = assay: 2-aminopurine fluorescence; details: C24 replaced by 2-aminopurine
P-TEFb/Tat1:57/AFF4 = P-TEFb/Tat1:57/AFF4 (HIV-1 (Tat); (P-TEFb, AFF4), UniProt O60563;P50750;P04608;Q9UHB7 1-264;1-330;1-57;2-73); assay: EMSA; 250-fold excess yeast tRNA; RNA 100 pM; details: protein: recombinant; copies: 1;1;1;1; label: 5'-32P; hairpin with UCU bulge

CC[C@H](C)[C@@H]1NC(=O)[C@H](CCCNC(=N)N)NC(=O)[C@H](CCCNC(=N)N)NC(=O)CNC(=O)[C@H](CCCCN)NC(=O)[C@H](CCCNC(=N)N)NC(=O)[C@H]([C@@H](C)O)NC(=O)[C@H](CCCNC(=N)N)NC(=O)[C@H](C(C)C)NC(=O)[C@H](CCCNC(=N)N)NC(=O)[C@@H]2CCCN2C(=O)[C@H]2CCCN2C(=O)[C@H]([C@@H](C)CC)NC(=O)[C@H](CCCNC(=N)N)NC1=O [Peptide L22] (cyclo(RVRTRKGRRIRI[dP]P))
inhibition of HIV-1 reactivation from latency (in words) [1]: inhibit at similar levels
inhibition of HIV-1 reactivation from latency (in words) ([1]; listed as cyclic L22): blocked reactivation
reduction of infection compared to no peptide controls ([2]; peptides 12.5 to 100 μM added 24 h post-infection, % GFP-expressing cells by flow cytometry, triplicate): > 50%
inhibition of viral replication and spread (in words) ([2]; peptides 12.5 to 100 μM, GFP by flow cytometry): blocked replication and spread

CC[C@H](C)[C@@H]1NC(=O)[C@H](CCCNC(=N)N)NC(=O)[C@H](CCCNC(=N)N)NC(=O)CNC(=O)[C@H](CCCCNC(=O)c2ccc3c(c2)C(=O)OC32c3ccc(O)cc3Oc3cc(O)ccc32)NC(=O)[C@H](CCCNC(=N)N)NC(=O)[C@H]([C@@H](C)O)NC(=O)[C@H](CCCNC(=N)N)NC(=O)[C@H](C(C)C)NC(=O)[C@H](CCCNC(=N)N)NC(=O)[C@@H]2CCCN2C(=O)[C@H]2CCCN2C(=O)[C@H]([C@@H](C)CC)NC(=O)[C@H](CCCNC(=N)N)NC1=O [fluorescein-labeled L22] (cyclo(RVRTRK(5FAM)GRRIRI[dP]P))
uptake (in words) (2D10 Jurkat cells): good uptake
uptake (in words) (CD4+ T cells): good uptake

GGCAGAUCUGAGCCUGGGAGCUCUCUGCC [HIV-1 TAR]
Kd (JB185 (synthetic)): 0.5 nM
Kd (JB190 (synthetic)): 1.6 nM
Kd [3]: 17 nM
Kd (L22 (synthetic)): 30 nM
Kd (JB59 (synthetic)): 1 nM
Kd (JB181 (synthetic) [4]): < 0.18 nM
Kd (JB186 (synthetic)): 1.2 nM
Kd (JB58 (synthetic)): 3 nM
Kd (JB184 (synthetic)): > 250 nM

HIV-1 TAR C24 2-aminopurine
Kd (JB181 (synthetic) [5]): 0.028 nM

B1: HIV-1 TAR (structured_RNA)
RNA: GGCAGAUCUGAGCCUGGGAGCUCUCUGCC
Kd (P-TEFb/Tat1:57/AFF4): 9 ± 4 nM
